According to patent US20160194653A1:

These substances were tested against GAL4 activation domain-HAB1 fusion protein (UniProt Q9CAJ0) (assay: cell-based or functional assay).
Chain of UniProt Q9CAJ0 (Q9CAJ0 23-511 limits assumed): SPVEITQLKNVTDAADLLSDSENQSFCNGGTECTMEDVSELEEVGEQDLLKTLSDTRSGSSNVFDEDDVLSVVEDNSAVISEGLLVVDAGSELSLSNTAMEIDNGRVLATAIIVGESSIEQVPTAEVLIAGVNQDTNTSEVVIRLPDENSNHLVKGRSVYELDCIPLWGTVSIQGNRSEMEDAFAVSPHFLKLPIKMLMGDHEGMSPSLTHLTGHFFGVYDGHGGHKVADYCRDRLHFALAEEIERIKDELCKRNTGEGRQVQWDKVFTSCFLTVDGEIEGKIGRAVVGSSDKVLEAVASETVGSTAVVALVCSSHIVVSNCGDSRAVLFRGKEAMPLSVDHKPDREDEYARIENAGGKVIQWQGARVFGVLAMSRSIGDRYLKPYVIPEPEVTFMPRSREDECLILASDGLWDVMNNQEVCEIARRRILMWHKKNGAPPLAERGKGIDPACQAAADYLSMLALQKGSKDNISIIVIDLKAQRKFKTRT

| Substance | Minimal conc. For ABA response | uracil-independent growth (URA3 reporter, yeast two-hybrid) on medium with ABA |
| --- | --- | --- |
| PYR1 mutant A160C (from UniProt P04386 1-147) (receptor) | 0.25 µM |  |
| PYR1 mutant A160V (from UniProt P04386 1-147) (receptor) | 0.25 µM |  |
| PYR1 mutant E141L (from UniProt P04386 1-147) (receptor) | 0.25 µM |  |
| PYR1 mutant E141M (from UniProt P04386 1-147) (receptor) | 0.25 µM |  |
| PYR1 mutant E141T (from UniProt P04386 1-147) (receptor) | 0.5 µM |  |
| PYR1 mutant E141W (from UniProt P04386 1-147) (receptor) | 0.5 µM |  |
| PYR1 mutant E141Y (from UniProt P04386 1-147) (receptor) | 0.25 µM |  |
| PYR1 mutant F61L (from UniProt P04386 1-147) (receptor) | 0.25 µM |  |
| PYR1 mutant I110C (from UniProt P04386 1-147) (receptor) | 0.25 µM |  |
| PYR1 mutant I110S (from UniProt P04386 1-147) (receptor) | 0.5 µM |  |
| PYR1 mutant V81Y (from UniProt P04386 1-147) (receptor) | 0.25 µM |  |
| PYR1F61L, A160C (from UniProt P04386 1-147) (receptor) |  | 50 nM |
| PYR1F61L, V81I, I110C, A160V (from UniProt P04386 1-147) (receptor) |  | 50 nM |
| PYR1F61M, A160V (from UniProt P04386 1-147) (receptor) |  | 50 nM |
| PYR1F61M, I110S, A160V (from UniProt P04386 1-147) (receptor) |  | 50 nM |

Second part, the substance after the results:

| Minimal conc. For ABA response | uracil-independent growth (URA3 reporter, yeast two-hybrid) on medium with ABA | Substance |
| --- | --- | --- |
| 0.25 µM |  | PYR1 mutant A160I (from UniProt P04386 1-147) (receptor) |
| 0.5 µM |  | PYR1 mutant E141C (from UniProt P04386 1-147) (receptor) |
| 0.25 µM |  | PYR1 mutant E141I (from UniProt P04386 1-147) (receptor) |
| 0.5 µM |  | PYR1 mutant E141N (from UniProt P04386 1-147) (receptor) |
| 0.5 µM |  | PYR1 mutant E141V (from UniProt P04386 1-147) (receptor) |
| 0.25 µM |  | PYR1 mutant F61M (from UniProt P04386 1-147) (receptor) |
| 0.25 µM |  | PYR1 mutant V81I (from UniProt P04386 1-147) (receptor) |
